The RNAGym collection of RNA variant scans (doi:10.1093/molbev/msab373)

B1: Azoarcus group I ribozyme (parent)
chain: GUGCCUUGCGCCGGGAAACCACGCAAGGGAUGGUGUCAAAUUCGGCGAAACCUAAGCGCCCGCCCGGGCGUAUGGCAACGCCGAGCCAAGCUUCGGCGCCUGCGCCGAUGAAGGUGUAGAGACUAGACGGCACCCACCUAAGGCAAACGCUAUGGUGAAGGCAUAGUCCAGGGAGUGGCGAAAGUCACACAAACCGG

Variants of: B1
Experiment: reverse-splicing fitness (ratio to wild type); higher = more active; in vitro selection; Mg2+ level not given
Method in brief: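 An in vitro group I ribozyme library with randomized positions was T7-transcribed and gel-purified. In triplicate, 10 pmol RNA in EPPS pH 7.5 was reacted with 50 pmoles of a 30-nt RNA substrate for 1 h at 37 °C across several added MgCl2 levels (1–48 mM), then stopped with EDTA. Products were reverse transcribed from a substrate-complementary primer, PCR-amplified and sequenced (HiSeq 4000). Fitness is a variant's read proportion after selection over that before, normalised to wild type.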

| Variant | reverse-splicing fitness |
| --- | --- |
| GUGCCUUGCGCCGGGAAACCACGCAAGGGAUGGUGUCAAAUUCGGCGAAACCUAAGCGCCCGCCCGGGCGUAUGGCAACGCUGAGCCAAGCUUCGGCGCCUGCGCCGAUGGAGGUGUAGUGACUAGACGGCACCCACCUAAGGCAAACGCUAUGGUGAAGGCAUAGUCGAGGGAGGGGCGAAAGUCACACAAACCGG [C82U A111G A120U C169G U176G] | 0.00183 |
| GUGCCUUGCGCCGGGAAACCACGCAAGGGAUGGUGUCAAAUUCGGCGAAACCUAAGCGCCCGCCCGGGCGUAUGGCAACGCUGAGCCAAGCUUCGGCGCCUGCGCCGAUGGAGGUGUAGUGACUAGACGGCACCCACCUAAGGCAAACGCUAUGGUGAAGGCAUAGUCGAGGGAGCGGCGAAAGUCACACAAACCGG [C82U A111G A120U C169G U176C] | 0.00265 |
| GUGCCUUGCGCCGGGAAACCACGCAAGGGAUGGUGUCAAAUUCGGCGAAACCUAAGCGCCCGCCCGGGCGUAUGGCAACGCUGAGCCAAGCUUCGGCGCCUGCGCCGAUGGAGGUGUAGUGACUAGACGGCACCCACCUAAGGCAAACGCUAUGGUGAAGGCAUAGUCGAGGGAGAGGCGAAAGUCACACAAACCGG [C82U A111G A120U C169G U176A] | 0.0028 |
| GUGCCUUGCGCCGGGAAACCACGCAAGGGAUGGUGUCAAAUUCGGCGAAACCUAAGCGCCCGCCCGGGCGUAUGGCAACGCUGAGCCAAGCUUCGGCGCCUGCGCCGAUGGAGGUGUAGUGACUAGACGGCACCCACCUAAGGCAAACGUUAUGGUGAAGGCAUAGUCUAGGGAGCGGCGAAAGUCACACAAACCGG [C82U A111G A120U C150U C169U U176C] | 0.00375 |
| GUGCCUUGCGCCGGGAAACCACGCAAGGGAUGGUGUCAAAUUCGGCGAAACCUAAGCGCCCGCCCGGGCGUAUGGCAACGCUGAGCCAAGCUUCGGCGCCUGCGCCGAUGGAGGUGUAGUGACUAGACGGCACCCACCUAAGGCAAACGUUAUGGUGAAGGCAUAGUCUAGGGAGGGGCGAAAGUCACACAAACCGG [C82U A111G A120U C150U C169U U176G] | 0.0019 |
| GUGCCUUGCGCCGGGAAACCACGCAAGGGAUGGUGUCAAAUUCGGCGAAACCUAAGCGCCCGCCCGGGCGUAUGGCAACGCUGAGCCAAGCUUCGGCGCCUGCGCCGAUGGAGGUGUAGUGACUAGACGGCACCCACCUAAGGCAAACGUUAUGGUGAAGGCAUAGUCUAGGGAGAGGCGAAAGUCACACAAACCGG [C82U A111G A120U C150U C169U U176A] | 0.00404 |
| GUGCCUUGCGCCGGGAAACCACGCAAGGGAUGGUGUCAAAUUCGGCGAAACCUAAGCGCCCGCCCGGGCGUAUGGCAACGCUGAGCCAAGCUUCGGCGCCUGCGCCGAUGGAGGUGUAGUGACUAGACGGCACCCACCUAAGGCAAACGUUAUGGUGAAGGCAUAGUCCAGGGAGUGGCGAAAGUCACACAAACCGG [C82U A111G A120U C150U] | 0.0236 |
| GUGCCUUGCGCCGGGAAACCACGCAAGGGAUGGUGUCAAAUUCGGCGAAACCUAAGCGCCCGCCCGGGCGUAUGGCAACGCUGAGCCAAGCUUCGGCGCCUGCGCCGAUGGAGGUGUAGUGACUAGACGGCACCCACCUAAGGCAAACGCUAUGGUGAAGGCAUAGUCUAGGGAGUGGCGAAAGUCACACAAACCGG [C82U A111G A120U C169U] | 0.00493 |
| GUGCCUUGCGCCGGGAAACCACGCAAGGGAUGGUGUCAAAUUCGGCGAAACCUAAGCGCCCGCCCGGGCGUAUGGCAACGCUGAGCCAAGCUUCGGCGCCUGCGCCGAUGGAGGUGUAGUGACUAGACGGCACCCACCUAAGGCAAACGCUAUGGUGAAGGCAUAGUCAAGGGAGUGGCGAAAGUCACACAAACCGG [C82U A111G A120U C169A] | 0.00275 |
| GUGCCUUGCGCCGGGAAACCACGCAAGGGAUGGUGUCAAAUUCGGCGAAACCUAAGCGCCCGCCCGGGCGUAUGGCAACGCUGAGCCAAGCUUCGGCGCCUGCGCCGAUGGAGGUGUAGUGACUAGACGGCACCCACCUAAGGCAAACGCUAUGGUGAAGGCAUAGUCGAGGGAGUGGCGAAAGUCACACAAACCGG [C82U A111G A120U C169G] | 0.00416 |
| GUGCCUUGCGCCGGGAAACCACGCAAGGGAUGGUGUCAAAUUCGGCGAAACCUAAGCGCCCGCCCGGGCGUAUGGCAACGCUGAGCCAAGCUUCGGCGCCUGCGCCGAUGGAGGUGUAGUGACUAGACGGCACCCACCUAAGGCAAACGUUAUGGUGAAGGCAUAGUCCAGGGAGAGGCGAAAGUCACACAAACCGG [C82U A111G A120U C150U U176A] | 0.00678 |
| GUGCCUUGCGCCGGGAAACCACGCAAGGGAUGGUGUCAAAUUCGGCGAAACCUAAGCGCCCGCCCGGGCGUAUGGCAACGCUGAGCCAAGCUUCGGCGCCUGCGCCGAUGGAGGUGUAGUGACUAGACGGCACCCACCUAAGGCAAACGUUAUGGUGAAGGCAUAGUCCAGGGAGCGGCGAAAGUCACACAAACCGG [C82U A111G A120U C150U U176C] | 0.0105 |
| GUGCCUUGCGCCGGGAAACCACGCAAGGGAUGGUGUCAAAUUCGGCGAAACCUAAGCGCCCGCCCGGGCGUAUGGCAACGCUGAGCCAAGCUUCGGCGCCUGCGCCGAUGGAGGUGUAGUGACUAGACGGCACCCACCUAAGGCAAACGUUAUGGUGAAGGCAUAGUCCAGGGAGGGGCGAAAGUCACACAAACCGG [C82U A111G A120U C150U U176G] | 0.00374 |
| GUGCCUUGCGCCGGGAAACCACGCAAGGGAUGGUGUCAAAUUCGGCGAAACCUAAGCGCCCGCCCGGGCGUAUGGCAACGCUGAGCCAAGCUUCGGCGCCUGCGCCGAUGGAGGUGUAGUGACUAGACGGCACCCACCUAAGGCAAACGUUAUGGUGAAGGCAUAGUCGAGGGAGUGGCGAAAGUCACACAAACCGG [C82U A111G A120U C150U C169G] | 0.00459 |
| GUGCCUUGCGCCGGGAAACCACGCAAGGGAUGGUGUCAAAUUCGGCGAAACCUAAGCGCCCGCCCGGGCGUAUGGCAACGCUGAGCCAAGCUUCGGCGCCUGCGCCGAUGGAGGUGUAGUGACUAGACGGCACCCACCUAAGGCAAACGUUAUGGUGAAGGCAUAGUCAAGGGAGUGGCGAAAGUCACACAAACCGG [C82U A111G A120U C150U C169A] | 0.00334 |
